± gives the standard error. Variants at the floor of the assay were thinned out.
B1: glmS ribozyme (parent)
chain: AUAAAAGCGCCAGAACUACAGAAAUGUAGUUGACGAGGAGGAGGUUUAUCGAAUUUUCGGCGGAUGCCUCCAAA

Experiments:
Conditions in all cases: with glucosamine-6-phosphate
[1] = variants of: B1; experiment: self-cleavage kobs at 40 uM GlcN6P; higher = faster cleavage; RNA array
How it was run: (§1)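 Tiles bearing barcoded ribozyme variants, transcribed in situ by E. coli RNA polymerase on sequenced MiSeq chips, were imaged over ~14 h at 37 °C using a hybridised Cy3 probe. Glucosamine-6-phosphate was supplied at 40 μM to 10 mM in HEPES/KCl/Mg(OAc)2 buffer. kobs came from one- or two-exponential decay fits to normalised per-tile medians, and weighted Michaelis–Menten fits then provided kcat and KM.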

[2] = variants of: B1; experiment: self-cleavage kobs at 160 uM GlcN6P; higher = faster cleavage; RNA array
How it was run: as §1

[3] = variants of: B1; experiment: self-cleavage kobs at 640 uM GlcN6P; higher = faster cleavage; RNA array
How it was run: as §1

[4] = variants of: B1; experiment: self-cleavage kobs at 2500 uM GlcN6P; higher = faster cleavage; RNA array
How it was run: as §1

[5] = variants of: B1; experiment: self-cleavage kobs at 10000 uM GlcN6P; higher = faster cleavage; RNA array
How it was run: as §1

| Variant | self-cleavage kobs at 40 uM GlcN6P [1] | self-cleavage kobs at 160 uM GlcN6P [2] | self-cleavage kobs at 640 uM GlcN6P [3] | self-cleavage kobs at 2500 uM GlcN6P [4] | self-cleavage kobs at 10000 uM GlcN6P [5] |
| --- | --- | --- | --- | --- | --- |
| AUAAACGCGCCAUAACUACAGAAAUGUAGUUGACGAGGAGGAGGUUUAUCGAAUUUUAGGCGGCUGCCUCCAAA | < 1e-05 s⁻¹ | < 1e-05 s⁻¹ | < 1e-05 s⁻¹ | < 1e-05 s⁻¹ | – |
| AUAAAAGCGCCAGAAUUACAGAAAUGUAGUUGACGAGGAGGUGGUUUAUCGAAUUUUCGGCAGAUGACUCCAAA | < 1e-05 s⁻¹ | – | – | – | < 1e-05 s⁻¹ |
| AUAAAAGCGCCAGAACUACAGAAAUGUAGUUGACGAAGUGGGGGUUUAUUGAAUUUUCGGCGGAUGCCUCCAAA | < 1e-05 s⁻¹ | – | < 1e-05 s⁻¹ | – | < 1e-05 s⁻¹ |
| AUAAAAGCGCCAUAACUACAGAAAUGUAGUUGACGUGGAGGAGGUUUAUUGAAUUUUCGGCGGAUGCCUUCAAA | 7.67e-05 ± 2.7e-05 s⁻¹ | – | – | – | – |
| AUAAAAGCGCCAGAACUACAGAAAUGUAGUUGACGAGGAGGAGGUUUAUGGAAUUUUCGGCGGAUGCCUACAAA | 8.32e-05 ± 1.7e-05 s⁻¹ | 0.000173 ± 5.4e-05 s⁻¹ | 0.000163 ± 4.1e-05 s⁻¹ | 0.000238 ± 5.8e-05 s⁻¹ | 7.91e-05 ± 1.3e-05 s⁻¹ |
| AUAAAAGCGCCAGAACUACAGAAAUGUAGUUUACGUGGAGGAGGUGUUUCGAAUUCUCGUUGGAUGCCUCCAAA | < 1e-05 s⁻¹ | – | < 1e-05 s⁻¹ | – | < 1e-05 s⁻¹ |
| AUAAAAGCGCCAGAACUACAGAAAUGUAGUUGACGAGGACGAGCUUUAUCGAAUUUUCGGCGGAUGCCUCCAAA | < 1e-05 s⁻¹ | – | – | – | < 1e-05 s⁻¹ |
| AUAAAAGCGCCAGAACUACAGAAAUGUAGGUGUCGAGGAGGAGGUUUAUCGAAUUUUCGACGGAUGCCUCCAAA | < 1e-05 s⁻¹ | – | < 1e-05 s⁻¹ | < 1e-05 s⁻¹ | – |
| AUAAAAGCGCCAGAACUACAGAAAUGUAGUCGACAAGGAGGAGGUUUAUCGAAUUUUCGGCGGAUGCCUCCAAA | < 1e-05 s⁻¹ | < 1e-05 s⁻¹ | < 1e-05 s⁻¹ | < 1e-05 s⁻¹ | < 1e-05 s⁻¹ |
| AUAAAAGCGCCAGAACUACAGAAAUGUAGUUGCCGAGGAGGAGGUUUAUCAAAUUUUCGCCGGAUGCCUCCAAA | < 1e-05 s⁻¹ | – | < 1e-05 s⁻¹ | – | – |
| AUAAAAGCGCCAGAACUACAGAAAUGUAGUUGACGAGGAUGAGGUUUAUCGAUUUUUAGGCUGAUGCCUCCAAA | < 1e-05 s⁻¹ | – | – | – | – |
| AUAAAAGCGCCAGAACUACAGAAAUGUAUUUGACGCGAAAGAGGUUUAUCGAAUUUUCGGCGGAUGCCUCCAAA | < 1e-05 s⁻¹ | – | – | < 1e-05 s⁻¹ | < 1e-05 s⁻¹ |
| AUAAAAGCGCCAGAACUACAGAAAUGUAGUUGGCGAGGACGAGGUUUAUCGAAUUUUCGGCGGAUGCCUUCAAA | < 1e-05 s⁻¹ | – | – | – | < 1e-05 s⁻¹ |
| AUAAAAGUGCCAGAACUACAGAAAUGUAGUUGUCGAGGAGGAGGUUUAUCGAAUUUUCGGCGGAUCCCUCCAAA | < 1e-05 s⁻¹ | – | – | – | – |
| AUAAAAGCGCCAGAACUACAGAAAUGUAGUUGACGGGGAGGAGUCUUAUCAAAUUUUCGGCGCAUGCCGGCAAA | < 1e-05 s⁻¹ | – | – | – | < 1e-05 s⁻¹ |
| AUAAAAGCGCCAGAUCUACAGAAAUGUAGUUGAGGAGGAGGAGGUUUAUCGAAUUUUCGGCGGAUUCCUCUAAA | < 1e-05 s⁻¹ | – | – | – | < 1e-05 s⁻¹ |

| Variant | self-cleavage kobs at 40 uM GlcN6P [1] | self-cleavage kobs at 160 uM GlcN6P [2] | self-cleavage kobs at 640 uM GlcN6P [3] | self-cleavage kobs at 2500 uM GlcN6P [4] | self-cleavage kobs at 10000 uM GlcN6P [5] |
| --- | --- | --- | --- | --- | --- |
| AUAAAAGCGCCAGAACUACAGAAAUGUAGUUGACGAGGAGGAGGUUUCGCGAAUUUUCGGCAGAUGCCUCCAAA | < 1e-05 s⁻¹ | – | – | – | – |
| AUAAAAUCGCCAGAACUACAGAAAUGUAGUUGACGAGGAGGAGGUUUAUCGAAUUUUCGGCGAAUGCCUCCAAA | < 1e-05 s⁻¹ | – | – | – | < 1e-05 s⁻¹ |
| AUAAACGCGCCAGAACUACAGAAAUGUAGUUGAAGAGGAGGAGGUUUAUCGAAUUUUAGGCGGAUGCCUCCAAA | < 1e-05 s⁻¹ | – | – | – | < 1e-05 s⁻¹ |
| AUAAAAGCGCCAGAACUACAGAAAUGUAGUUGAUGACGAGGAGGUUUAUCGAGUUUUCGGCGGAUGCCUCCAAA | < 1e-05 s⁻¹ | – | – | – | – |
| AUAAAAGCGCCAGAACUACAGAAAUGUAGUUCACGAGGAGGAUGUUCAUCGAAUUUUCGGCGGAUGCCUCCAAA | < 1e-05 s⁻¹ | – | – | – | – |
| AUAAAAGCGCCAGAACUACAGAAAUGUAGUUGACGAGGAGGAGGUUGAUCGAAUUUUAAGCGGAUGCCUACAAA | 4.75e-05 ± 1.8e-05 s⁻¹ | – | – | – | – |
| AUAAAAGGGCCAGAACUACAGAAAUGUAGUUGAUGAGGAGGAGGUUUAUCGAAUGUUCGGCGGAUGCCUCCAAA | < 1e-05 s⁻¹ | – | – | – | < 1e-05 s⁻¹ |
| AUAAAACCGUCAGAUCUACAGAAAUGUAGUUGACGAGGAGGAGGUUUACCGAAUUUUCGGCGGAUGCCUCCAAA | < 1e-05 s⁻¹ | – | – | – | < 1e-05 s⁻¹ |
| AUAAAAGCGCCAGAACUACAGAAAUGUAGUUCACGAGGAAGAGGUUUAUCGAAUUUUCGGCGGAUGCCUCCAAA | < 1e-05 s⁻¹ | < 1e-05 s⁻¹ | – | – | 1.99e-05 ± 7.3e-06 s⁻¹ |
| AUAAAAGCGCCAGAACUACAGAAAUGUAGUUCACGAGGAGGAGGUUUAUCGAAUUUUCGGCGGAUGCCGCCAAA | 0.000189 ± 3.1e-05 s⁻¹ | – | 0.000383 ± 8e-05 s⁻¹ | 0.000111 ± 2.5e-05 s⁻¹ | 9.57e-05 ± 1.1e-05 s⁻¹ |
| AUAAAAGCGCCACACCUACAGAAAUGUAGUUGACGAGGAGGAGGUUUAUCUAAUUUUCGGCGGAUGCCUCCAAA | < 1e-05 s⁻¹ | – | – | – | – |
| AUAAAAGCGCCAGAACUACAGAAAUGUAGUUGACGAGGAGGAGGUGUAUCGAAUUUUCGGCGGAAGCCUUCAAA | 8.31e-05 ± 1.9e-05 s⁻¹ | – | – | – | 0.00117 ± 0.00024 s⁻¹ |
| AUAAAAGCGCCAGAACUACAGAAAUGUAGUUGACGAGGAGGAGGUUUAUCGAAUUCUCGGCUGAUGCCUCCAAA | < 1e-05 s⁻¹ | – | – | – | < 1e-05 s⁻¹ |
| AUAAAAGCGCCAGAAAUACAGAAAUGUAGUUGACGAGGAGGAGGUUUAUCGCAUUUUCGGCGGAUGCCUCCAAA | < 1e-05 s⁻¹ | < 1e-05 s⁻¹ | < 1e-05 s⁻¹ | – | < 1e-05 s⁻¹ |
| AUAAAAGCGCCAGUACUACAGAAAUGUAGUUGACGAGGAGGAGGUUUAUCGAGUUUUCGGCGGAUGCCUCCAAA | 0.000202 ± 2.5e-05 s⁻¹ | 0.000311 ± 5.2e-05 s⁻¹ | 0.00204 ± 0.00026 s⁻¹ | 0.00365 ± 0.00059 s⁻¹ | 0.00969 ± 0.0011 s⁻¹ |
| AUAAAAUCGCCAGAACUACAGAAAUGUAGUAUACGAGGAGUAGGUUUUUCGAAUUUUCGGCGGAUGCCUCCAAA | < 1e-05 s⁻¹ | – | – | – | < 1e-05 s⁻¹ |
